In the supplement of paper PMC10567573:
± gives the standard deviation.

Assay: protein stability index of a GFP-peptide fusion (GPS, HEK-293T) (PSI 1-6); higher = more stable
[1] = treatment: DMSO, c terminus: a fixed tail appended
[2] = treatment: MLN4924 1 uM, 8 h, c terminus: a fixed tail appended
[3] = treatment: DMSO, c terminus: native
[4] = treatment: MLN4924 1 uM, 8 h, c terminus: native
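Further: 24-mer peptide tiles fused after GFP, lentivirally expressed, FACS-sorted into six equal bins by GFP/DsRed ratio, decoded by Illumina sequencing, PSI is the read-weighted mean bin number.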

Sequence	protein stability index [1]	protein stability index [2]	protein stability index [3]	protein stability index [4]
SVREVTQIKCIELKSELGRKWHKA [P2RY14]	2.83 ± 0.24	3.23 ± 0.29	–	–
SSETPPPPPPPNEINPPPHTMEEE [EIF5]	5.52 ± 0.31	5.46 ± 0.3	–	–
HSSSRDSHLSNGLDPVAETAIRQL [C2CD2L]	4.42 ± 0.35	4.53 ± 0.18	–	–
NSLRGVILDIHFLSQADFLVCTFS [FUT8]	2.72 ± 0.71	2.79 ± 0.49	–	–
CKCSEGFVLAEDGRRCKKCTEGPI [MATN2]	4.99 ± 0.2	5.41 ± 0.081	–	–
ALSQLICFCRESRYMDQWVPVINL [GADD45A]	2.95 ± 0.45	3.06 ± 0.76	–	–
KWWSDRLALFPLLPKVLQKYWCVT [ZBED1]	2.93 ± 1	2.73 ± 0.61	–	–
IPGFKFDNSLINQIENLNIQVEDI [LOXL2]	3.51 ± 0.18	3.37 ± 0.38	–	–
NITINIVDDHTPWVKGSVPPPLDQ [CLPTM1]	2.83 ± 0.28	2.77 ± 0.34	–	–
TQESTFQELCEGLLEESDGEGEPG [NOP53]	5.59 ± 0.22	5.51 ± 0.22	–	–
RPSLVIHLRIHTGEKPYKCTHCSK [ZNF449]	2.51 ± 0.49	2.31 ± 0.54	–	–
MAAGNTVIAKPSELTSVTAWMLCK [ALDH8A1]	2.44 ± 0.1	2.35 ± 0.23	–	–
RERQRRLEVEREAEKKREAKQRAK [LRRC59]	5.22 ± 0.29	5.43 ± 0.06	–	–
ENIKGYYIIIVPLKKSRGKFIKPW [PTPRD]	2.67 ± 0.86	1.86 ± 0.45	–	–
CGHTFCRLCLPALSQMGAQSSGKI [TRIM15]	2.12 ± 0.42	2.36 ± 0.46	–	–
RDLEKQKEEVRAALEQREQDAVDQ [TRIM29]	5.59 ± 0.08	5.66 ± 0.22	–	–
EHIADALRAIDFGTDEEEEEFIEE [TRIM63]	5.34 ± 0.2	5.36 ± 0.32	–	–
GGRRRPPASSRNRSPSGSLRSARG [RBMY1A1]	5.16 ± 0.28	5.2 ± 0.18	–	–
ADDAAAVAAKCPRLSECSSPPDYL [TRIB1]	5.03 ± 0.79	5.22 ± 0.17	–	–
SRVAGFNPALQLILTRTDKTLNKK [TOR1AIP2]	4.25 ± 0.3	4.33 ± 0.18	–	–
ADPLDTPPDSKEGIVVESNHDSHM [PDZK1]	5.53 ± 0.1	5.36 ± 0.33	–	–
QLESLGLLAPGEQSLPCTERKPAA [KISS1]	4.69 ± 0.18	4.73 ± 0.15	–	–
DLKLGNFFINEAMELKVGDFGLAA [PLK2]	2.14 ± 0.078	2.63 ± 0.17	–	–

Sequence	protein stability index [1]	protein stability index [2]	protein stability index [3]	protein stability index [4]
PKTSGTRATSLGRPEEEEDELAHR [CPOX]	5.42 ± 0.36	5.42 ± 0.19	–	–
CRERWHNHLNPEVKKSCWTEEEDR [MYBL2]	4.2 ± 0.4	4.34 ± 0.25	–	–
LEDYINDRQYDSRGRFGELLLLLP [HNF4A]	2.19 ± 0.32	2.22 ± 0.2	–	–
TEDSPLGTVVALLNVHDLDSEQNG [PCDHGA10]	4.86 ± 0.18	4.94 ± 0.27	–	–
HSFNFVLSANLHGGAVVANYPYDK [CPN1]	2.19 ± 0.44	2.4 ± 0.2	–	–
MAAAAEERMAEEGGGGQGDGGSSL [FBXO28]	5.45 ± 0.29	5.57 ± 0.33	–	–
APLVKTLEKEEEKDLVMYSKCQRL [CDC25B]	4.69 ± 0.42	4.59 ± 0.052	–	–
LDMNFSLENREEPWVKELQDSKEM [ZNF449]	5.31 ± 0.18	5.35 ± 0.32	–	–
EDVARPTQRLWDFTQSGPIVSRAT [GALNT9]	3.99 ± 0.056	3.87 ± 0.33	–	–
AAKTLPGGAGKGRTPSAFPQTPAA [EHMT1]	4.26 ± 0.33	4.39 ± 0.085	–	–
LHQTIYNQACKLLSDDYEQVRSAA [INTS4]	2.96 ± 0.48	3.09 ± 0.19	–	–
VQRKSDFDQTVFQEVFEPPHYELC [NETO1]	3.44 ± 0.23	3.62 ± 0.3	–	–
RGLGSQASTVTEIVKQQDPLVYKA [ACSBG2]	4.32 ± 0.041	4.31 ± 0.52	–	–
TSYCELLQNKVPLLGSSTACIVVL [PPTC7]	2.8 ± 0.1	2.55 ± 0.09	–	–
ENIEVKEGGLYFERRPVAQSTDGA [SPSB2]	4.55 ± 0.27	4.66 ± 0.18	–	–
EYQPLQIETYGPHVPELEMLGRLG [MNAT1]	3.18 ± 0.28	3.76 ± 0.31	–	–
GLDSISHDSANCELPLLTPCSKAV [ETS2]	4.47 ± 0.076	4.55 ± 0.28	–	–
TVQIICNTGYRLQNNENNISCVER [CFHR2]	2.44 ± 0.4	2.64 ± 0.25	–	–
FLVDMFNDEIEEVRLQSIHTMRKI [INTS4]	2.33 ± 0.13	2.54 ± 0.34	–	–
NAYHIERLMSFRPICSANHKESKM [CRYBA1]	3.12 ± 0.16	3.29 ± 0.12	–	–
RGTHAVVGVATARAPLHSVGYTAL [SPSB4]	2.68 ± 0.27	2.63 ± 0.41	–	–
FIIFGTMEEMQNKAVVFFVFYLWS [HACD3]	2.8 ± 0.69	2.75 ± 0.13	–	–
SAGKRGPDRGSPEYRQRRERNNIA [CEBPD]	4.61 ± 0.2	4.41 ± 0.039	–	–

Sequence	protein stability index [1]	protein stability index [2]	protein stability index [3]	protein stability index [4]
TEPEDDRGPVVPKHSTFGQSLTQR [GNAS]	4.89 ± 0.31	4.85 ± 0.2	–	–
GLMSFIGNRNKLGYSLARGSIGF [TPRG1]	–	–	2.67 ± 0.39	2.5 ± 0.97
EVLVGKTIEQSLLEVMEEEELANL [RSPH3]	4.89 ± 0.3	4.91 ± 0.23	–	–
ERWLQKQGKYSGVGLLDHMVSIYL [RNF180]	2.3 ± 0.39	2.59 ± 0.28	–	–
AVAHMKYMGKGSMTGLALKHMFER [MATN2]	2.07 ± 0.3	2.34 ± 0.26	–	–
GLKPNSLYYFRLAARSPQGLGAST [PTPRD]	1.89 ± 0.099	2.85 ± 1	–	–
FFYGETVTDYFFTLVQREEPLRIL [CDS2]	2.73 ± 0.66	2.17 ± 0.46	–	–
YISPELCEGKPYNQKSDIWALGCV [NEK8]	2.19 ± 0.41	2.01 ± 0.19	–	–
LSWLVWLLLLLLASLLPSARLASP [ADAMTS4]	2.99 ± 0.65	2.5 ± 0.3	–	–
LSLLDNNIPGNSTLITAVELERFV [FBXO33]	2.44 ± 0.95	2.36 ± 0.15	–	–
PTSPVYRGSSSGPSSPARVSTTPR [MTUS2]	5 ± 0.25	4.95 ± 0.33	–	–
HAPKIGSNGVEMAAKFPSGSQRAR [SDE2]	4.56 ± 0.13	4.62 ± 0.19	–	–
TDANLPSGGKGFKLRRQPSEPKRS [RAB22A]	4.88 ± 0.41	5.08 ± 0.17	–	–
NEARHNFGIVEIDGMLYILGGEDG [GAN]	2.63 ± 0.37	2.72 ± 0.4	–	–
NYSIPSNVTNLEGGPGRQTTSPNV [ESR2]	4.66 ± 0.36	4.68 ± 0.27	–	–
FTTFFIDCMAALGLAYDRKKVSKA [SCD]	2.07 ± 0.32	2.26 ± 0.53	–	–
DQLLLNYAKKESDLNGAQIKLREY [LMNB1]	3.617 ± 0.031	3.71 ± 0.1	–	–
DRIRFTVNRRISIVGFGLYGSIHG [BTBD1]	2.25 ± 0.61	2.32 ± 1.2	–	–
LIPRTMADQQARRQERKPKDRRK [NFE2L1]	–	–	5.32 ± 0.22	5.217 ± 0.028
SAESQGLDGAGLMGFVPHNGSLYG [ADAMTSL2]	–	3.47 ± 1.6	–	–
MSGKSPVESSLNVKTKKNAPSATI [FBXO34]	4.5 ± 0.22	4.6 ± 0.12	–	–
ELAEIFRASGEHVTDEEIESLMKD [TNNC2]	5 ± 0.41	5.34 ± 0.33	–	–
QQQQLTFTAALEHCRENAHDKIRP [SPACA9]	4.1 ± 0.22	4.03 ± 0.16	–	–

Sequence	protein stability index [1]	protein stability index [2]	protein stability index [3]	protein stability index [4]
IMATLGFGDSPKAEKRQIGDQEGP [FBF1]	4.37 ± 0.17	4.3 ± 0.12	–	–
LMDEGASSEKKRQSSADGSQPPKK [RBBP5]	5.56 ± 0.36	5.53 ± 0.24	–	–
ITRPSPRRSNSPDKFKRPTPPPSP [CCDC6]	5.18 ± 0.13	5.44 ± 0.081	–	–
TTSEEAVGGATPDQTTSEETVGGA [HDAC6]	5.5 ± 0.32	5.57 ± 0.27	–	–
KIKEKYIDQEELNKTKPIWTRNPD [HSP90AB1]	3.71 ± 0.26	3.96 ± 0.24	–	–
FYGETVADYFATFVQREEQLQFLI [CDS1]	2.71 ± 0.79	2.43 ± 0.32	–	–
RGLRGEPGPQGSAGQRGEPGPKGD [EMID1]	5.19 ± 0.4	5.41 ± 0.6	–	–
EARGLRLSDLEDLEEEEEEEEEAE [IRX6]	5.55 ± 0.41	5.5 ± 0.39	–	–
LLKPIPEYSPEEESEPPAPNIRNM [TRAF3IP2]	5.12 ± 0.11	5.22 ± 0.37	–	–
KFHHSDCLSTWLLHFIATNYLIFS [RHOBTB3]	3.21 ± 0.23	3.05 ± 0.24	–	–
TRLFHDSAVTSVRILQDEQYLMAS [DCAF4]	2.76 ± 0.18	2.88 ± 0.25	–	–
ILGPVVGGYLTELEDGFYLTAFIC [MFSD9]	2.99 ± 0.34	3.05 ± 0.88	–	–
MASPPRCSPTAHDRECKLPPPSAP [WDR88]	4.67 ± 0.25	4.83 ± 0.24	–	–
PLTLQVQRPLVSVTVSDASWVSEL [AUP1]	2.67 ± 0.15	2.67 ± 0.25	–	–
QHHHHHHHHHGRDFLLRAASFDVC [RHOBTB2]	2.55 ± 0.14	2.58 ± 0.2	–	–
LFTDRMATRSTTQSNRTSRLIGKK [WEE1]	4.25 ± 0.1	4.4 ± 0.063	–	–
SGGGRDSSSSILRWLPEKRANPCL [ELOA2]	3.11 ± 0.26	3.47 ± 0.17	–	–
KTSAALSTVGSAISRKLGDMRNSA [TPD52L2]	3.64 ± 0.29	3.7 ± 0.29	–	–
KSEYMEIEEDMNNSIAHYRQVNIR [KCNA1]	3.34 ± 0.2	3.57 ± 0.53	–	–
DENSSDGRYVKENCKPLKSYMLQD [CLK3]	4.57 ± 0.49	4.36 ± 0.11	–	–
